Among the data in patent EP2450379B1 are OD 492nm values, retold here.

This assay concerns the target HA in BPL-inactivated virus preparation of A/New Caledonia/20/99 (H1N1) (influenza A virus A/New Caledonia/20/99 (H1N1)). Nature of the assay: ELISA, IgG 5 µg/ml. A general note: An ELISA detects its analyte on a solid surface through an enzyme-linked reagent.

For CR3014 (antibody), the OD 492nm worked out at 0.09 OD 492nm. Substance CR6261 (antibody) yielded an OD 492nm of 1.46 OD 492nm.
